Assay results taken from article PMC10123100, “Single-molecule visualization of stalled replication-fork rescue by the Escherichia coli Rep helicase” (Nucleic Acids Research, 2023).

Legend:
dCas9 D10A;H840A = dCas9 D10A;H840A (UniProt Q99ZW2); assay: single-molecule TIRF; settings: 3'-biotin on strand 2, SPR: 25 mM Tris-HCl pH 7.6, 50 mM NaCl, 5 mM MgCl2, 0.25 mM DTT, 0.2 mM EDTA, 0.005% P20, 20 C, single-molecule: 25 mM Tris-HCl pH 7.9, 10 mM Mg acetate
[1] = biological target: DnaB helicase (Escherichia coli) (UniProt P0ACB0)
[2] = biological target: DnaB helicase (Escherichia coli) (UniProt P0ACB0); remark: listed apart in the source
DnaB (Escherichia coli) = DnaB (Escherichia coli) (UniProt P0ACB0); assay: SPR; settings: cited from earlier work
Chain of DnaB (Escherichia coli) (P0ACB0 2-471): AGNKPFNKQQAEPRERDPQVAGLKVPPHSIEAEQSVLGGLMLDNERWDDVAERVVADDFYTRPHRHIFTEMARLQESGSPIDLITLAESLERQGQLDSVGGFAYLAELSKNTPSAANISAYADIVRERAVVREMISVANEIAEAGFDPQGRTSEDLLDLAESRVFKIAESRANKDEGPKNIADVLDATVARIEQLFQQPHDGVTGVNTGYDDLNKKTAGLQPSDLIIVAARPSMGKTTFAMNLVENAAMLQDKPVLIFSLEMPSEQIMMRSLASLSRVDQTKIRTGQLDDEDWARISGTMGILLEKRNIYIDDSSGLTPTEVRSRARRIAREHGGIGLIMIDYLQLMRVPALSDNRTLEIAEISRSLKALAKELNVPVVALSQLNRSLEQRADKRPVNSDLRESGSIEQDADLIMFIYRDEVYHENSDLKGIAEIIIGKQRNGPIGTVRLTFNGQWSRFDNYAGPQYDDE

Chain of DnaB helicase (Escherichia coli) (P0ACB0 whole entry): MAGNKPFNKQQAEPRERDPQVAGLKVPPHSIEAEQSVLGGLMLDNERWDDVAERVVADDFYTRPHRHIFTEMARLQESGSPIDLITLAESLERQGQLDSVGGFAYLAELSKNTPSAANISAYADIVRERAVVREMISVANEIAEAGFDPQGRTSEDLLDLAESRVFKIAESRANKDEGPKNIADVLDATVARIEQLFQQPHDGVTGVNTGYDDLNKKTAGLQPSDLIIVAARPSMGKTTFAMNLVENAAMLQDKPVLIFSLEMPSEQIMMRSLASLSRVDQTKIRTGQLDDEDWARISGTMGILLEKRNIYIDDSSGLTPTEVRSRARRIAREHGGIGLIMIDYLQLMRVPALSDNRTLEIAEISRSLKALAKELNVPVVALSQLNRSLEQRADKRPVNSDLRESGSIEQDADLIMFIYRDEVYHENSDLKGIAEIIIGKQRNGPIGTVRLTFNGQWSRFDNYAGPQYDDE
Chain of His6-Rep WT (P09980 whole entry): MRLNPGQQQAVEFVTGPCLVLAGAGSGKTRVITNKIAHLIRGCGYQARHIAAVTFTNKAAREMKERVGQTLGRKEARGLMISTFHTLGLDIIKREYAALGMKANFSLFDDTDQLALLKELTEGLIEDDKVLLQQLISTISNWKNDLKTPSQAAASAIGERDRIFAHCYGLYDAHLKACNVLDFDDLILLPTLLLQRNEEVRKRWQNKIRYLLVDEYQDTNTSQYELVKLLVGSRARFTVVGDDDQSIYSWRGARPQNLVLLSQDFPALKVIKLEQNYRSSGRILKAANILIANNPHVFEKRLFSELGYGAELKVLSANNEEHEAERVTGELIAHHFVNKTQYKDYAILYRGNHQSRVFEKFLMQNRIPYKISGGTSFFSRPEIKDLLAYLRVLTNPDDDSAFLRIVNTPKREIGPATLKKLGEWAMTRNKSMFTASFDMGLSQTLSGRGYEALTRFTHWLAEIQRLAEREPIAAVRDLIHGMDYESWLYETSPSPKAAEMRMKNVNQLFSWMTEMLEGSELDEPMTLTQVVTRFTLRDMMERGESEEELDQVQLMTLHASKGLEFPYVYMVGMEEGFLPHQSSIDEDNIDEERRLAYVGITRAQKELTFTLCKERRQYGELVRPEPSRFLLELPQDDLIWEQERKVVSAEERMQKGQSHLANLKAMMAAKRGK
Chain of His6-Rep ΔC33 (P09980 1-640, stated change not applied): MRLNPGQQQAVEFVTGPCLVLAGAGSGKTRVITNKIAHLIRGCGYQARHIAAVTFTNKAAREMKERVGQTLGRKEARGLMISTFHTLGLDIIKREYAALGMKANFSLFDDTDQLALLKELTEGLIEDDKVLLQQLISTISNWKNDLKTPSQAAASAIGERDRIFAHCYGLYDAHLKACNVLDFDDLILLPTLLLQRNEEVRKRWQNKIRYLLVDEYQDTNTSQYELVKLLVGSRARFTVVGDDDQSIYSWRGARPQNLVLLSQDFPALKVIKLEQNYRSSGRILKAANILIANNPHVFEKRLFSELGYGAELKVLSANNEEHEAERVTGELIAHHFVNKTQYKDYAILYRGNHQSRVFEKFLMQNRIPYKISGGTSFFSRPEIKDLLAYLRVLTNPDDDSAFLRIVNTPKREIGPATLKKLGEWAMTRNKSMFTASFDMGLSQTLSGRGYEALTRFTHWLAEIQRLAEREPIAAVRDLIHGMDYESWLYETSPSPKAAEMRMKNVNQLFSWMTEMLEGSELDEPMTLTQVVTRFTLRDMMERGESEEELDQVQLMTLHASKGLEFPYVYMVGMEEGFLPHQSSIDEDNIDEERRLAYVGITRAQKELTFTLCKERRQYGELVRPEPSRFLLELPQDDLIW
Chain of Rep (P09980 whole entry): as the sequence (P09980 whole entry) above

Substance | binding signal (min (mean binding lifetime)) (dCas9 D10A;H840A) | other results
CACATGCTATGAGCTGTTGCAATCTCTCGTACAATTAATAGACTGGATGGTGGATGACAAAGCTCTACACTAGATACTCACAC (double strand) [gRNA20 / 83-mer target] | 1 | 
CACATGCTATGAGCTGTTGCAATCTCTCGTACAATTAATAGACTGGATGGTGGATGACAAAGCTCTACACTAGATACTCACAC (double strand) [gRNA40 / 83-mer target] | 1 | 
CACATGCTATGAGCTGTTGCAATCTCTCGTACAATTAATAGACTGGATGGTGGATGACAAAGCTCTACACTAGATACTCACAC (double strand) [gRNA60 / 83-mer target] | 8.3 | 
CACATGCTATGAGCTGTTGCAATCTCTCGTACAATTAATAGACTGGATGGTGGATGACAAAGCTCTACACTAGATACTCACAC (double strand) [gRNA80 / 83-mer target] | 8.6 | 
His6-Rep WT (from UniProt P09980 1-673) (enzyme) |  | mean total DNA product length after 3 min in the single-molecule stalled rolling-circle replication assay (template pre-incubated with the dCas9-cgRNA1-Atto647 roadblock), 20 nM Rep WT [1]: 65 kbp; replication efficiency in the single-molecule stalled rolling-circle replication assay (dCas9-cgRNA1-Atto647 roadblock), 20 nM Rep WT [2]: 2%
His6-Rep ΔC33 (from UniProt P09980 1-640) (domain or fragment) |  | mean total DNA product length after 3 min in the single-molecule stalled rolling-circle replication assay (template pre-incubated with the dCas9-cgRNA1-Atto647 roadblock), 20 nM Rep ΔC33 [1]: 2 kbp
Rep (from UniProt P09980) |  | Kd (DnaB (Escherichia coli)): 90 nM
